From IntAct's records for PubMed 22265413

B1: Receptor-interacting serine/threonine-protein kinase 3 (Homo sapiens), Q9Y572 (parent)
chain: MSCVKLWPSGAPAPLVSIEELENQELVGKGGFGTVFRAQHRKWGYDVAVKIVNSKAISREVKAMASLDNEFVLRLEGVIEKVNWDQDPKPALVTKFMENGSLSGLLQSQCPRPWPLLCRLLKEVVLGMFYLHDQNPVLLHRDLKPSNVLLDPELHVKLADFGLSTFQGGSQSGTGSGEPGGTLGYLAPELFVNVNRKASTASDVYSFGILMWAVLAGREVELPTEPSLVYEAVCNRQNRPSLAELPQAGPETPGLEGLKELMQLCWSSEPKDRPSFQECLPKTDEVFQMVENNMNAAVSTVKDFLSQLRSSNRRFSIPESGQGGTEMDGFRRTIENQHSRNDVMVSEWLNKLNLEEPPSSVPKKCPSLTKRSRAQEEQVPQAWTAGTSSDSMAQPPQTPETSTFRNQMPSPTSTGTPSPGPRGNQGAERQGMNWSCRTPEPNPVTGRPLVNIYNCSGVQVGDNNYLTMQQTTALPTWGLAPSGKGRGLQHPPPVGSQEGPKDPEAWSRPQGWYNHSGK
partner: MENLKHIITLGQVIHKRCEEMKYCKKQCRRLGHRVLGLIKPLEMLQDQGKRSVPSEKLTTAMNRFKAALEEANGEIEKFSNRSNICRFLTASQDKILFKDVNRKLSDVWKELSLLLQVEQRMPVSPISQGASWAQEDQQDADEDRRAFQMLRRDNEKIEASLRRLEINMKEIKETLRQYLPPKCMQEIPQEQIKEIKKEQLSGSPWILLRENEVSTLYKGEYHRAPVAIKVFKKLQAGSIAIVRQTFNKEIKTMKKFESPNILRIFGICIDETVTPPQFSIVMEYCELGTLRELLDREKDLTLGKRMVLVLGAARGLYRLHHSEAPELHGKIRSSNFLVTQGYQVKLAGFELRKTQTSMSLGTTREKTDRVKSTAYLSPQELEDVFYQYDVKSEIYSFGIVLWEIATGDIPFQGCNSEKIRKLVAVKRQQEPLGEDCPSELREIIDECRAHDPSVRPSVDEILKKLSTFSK
B2: Mixed lineage kinase domain-like protein (Homo sapiens), Q8NB16 (parent)
chain: B1 partner

Variants of: B1
Settings: with mlkl_human MLKL

Variant	effect of a mutation on the interaction
S227A	disrupting interaction
D142N	disrupting interaction

Variants of: B1
Settings: with mlkl_human MLKL
Remark: another data set of the same source

Variant	effect of a mutation on the interaction
K50A	decreasing interaction

Variants of: B2
Settings: with ripk3_human RIPK3, Q9Y572

Variant	effect of a mutation on the interaction
MENLKHIITLGQVIHKRCEEMKYCKKQCRRLGHRVLGLIKPLEMLQDQGKRSVPSEKLTTAMNRFKAALEEANGEIEKFSNRSNICRFLTASQDKILFKDVNRKLSDVWKELSLLLQVEQRMPVSPISQGASWAQEDQQDADEDRRAFQMLRRDNEKIEASLRRLEINMKEIKETLRQYLPPKCMQEIPQEQIKEIKKEQLSGSPWILLRENEVSTLYKGEYHRAPVAIKVFKKLQAGSIAIVRQTFNKEIKTMKKFESPNILRIFGICIDETVTPPQFSIVMEYCELGTLRELLDREKDLTLGKRMVLVLGAARGLYRLHHSEAPELHGKIRSSNFLVTQGYQVKLAGFELRKTQEDMSLGTTREKTDRVKSTAYLSPQELEDVFYQYDVKSEIYSFGIVLWEIATGDIPFQGCNSEKIRKLVAVKRQQEPLGEDCPSELREIIDECRAHDPSVRPSVDEILKKLSTFSK [T357E;S358D]	decreasing interaction
MENLKHIITLGQVIHKRCEEMKYCKKQCRRLGHRVLGLIKPLEMLQDQGKRSVPSEKLTTAMNRFKAALEEANGEIEKFSNRSNICRFLTASQDKILFKDVNRKLSDVWKELSLLLQVEQRMPVSPISQGASWAQEDQQDADEDRRAFQMLRRDNEKIEASLRRLEINMKEIKETLRQYLPPKCMQEIPQEQIKEIKKEQLSGSPWILLRENEVSTLYKGEYHRAPVAIKVFKKLQAGSIAIVRQTFNKEIKTMKKFESPNILRIFGICIDETVTPPQFSIVMEYCELGTLRELLDREKDLTLGKRMVLVLGAARGLYRLHHSEAPELHGKIRSSNFLVTQGYQVKLAGFELRKTQAAMSLGTTREKTDRVKSTAYLSPQELEDVFYQYDVKSEIYSFGIVLWEIATGDIPFQGCNSEKIRKLVAVKRQQEPLGEDCPSELREIIDECRAHDPSVRPSVDEILKKLSTFSK [T357A;S358A]	disrupting interaction
